± gives the uncertainty stated by the source.
Test: amyloid nucleation score (Sup35N fusion, yeast selection) (log enrichment); library NNK3; higher = more nucleation; inactive = no reads after selection
Summary of the method: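 The nucleation score, computed with DiMSum, is the log enrichment of output over input reads, centred on the mode score of non-aggregating sequences. Sequences with under 100 input reads were dropped. Reads were generated by Illumina sequencing of plasmid inserts from psi-negative yeast with Sup35N fused to peptides of 20 random codons, induced with 100 μM copper sulfate for 24 hours and grown 7 days at 30°C on medium lacking adenine and uracil.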

Substance | amyloid nucleation score
SSELLLHGGTYYKIIYK | 0.586 ± 0.12
SSESDVNLDVMSKYKFGNIH | inactive
SSFGQICIRSMQYLVGCKWC | inactive
SSFNFTSIVLHIANLLHFFL | inactive
SSFQSYYTSSDMTEF | inactive
SSISVRENYFMASRVMMVGC | 0.234 ± 0.56
SSITRVEKSCIFLCTALMLR | inactive
SSKCWSTSCFFKGKSLSSLG | inactive
SSLTSNCPRKALKREVVRHW | inactive
SSMVTSLGCVLYKL | inactive
SSNLDTTVCFPVCSAPELEG | inactive
SSPSWFTYLVKQVALRSVTQ | 1.55 ± 0.1
SSQLDHVRLSGYVLTLEGPF | inactive
SSRRSNYASSDPIWIVSLFG | inactive
SSRVNKGEVARLVVSIPIIH | inactive
SSSAFCGVAIRALIAGGKGY | inactive
SSSKMW | inactive
SSSQTISQGDSGHLHYKVWS | inactive
SSSTFPSSKIDYGTIR | inactive
SSVSFVITGPVAFVWNQGLV | 2.56 ± 0.083
SSYIESQELHSWAVQLRLLV | inactive
STCKKNWNIARRI | inactive
STIDKCLYINIAIYAIFPDF | 1.31 ± 0.12

Substance | amyloid nucleation score
STKSSLRYNLEQLPDLLKIV | inactive
STNGLLTSNS | inactive
STRRSYNPCYWSGLYSSIGH | inactive
STSVSLTWNPKKRLYYLLTI | inactive
STSVSYEWPDLGACIGGDFG | inactive
STTDRTWNGYDDILYTYLYF | inactive
STWYSRCVLALNLLLSCNRG | 1.38 ± 0.13
STYGRMAR | inactive
SVGVGNIHTR | inactive
SVMLDNTVVFTIRSGHCSES | 1.13 ± 0.1
SVNNVAWWHYGKMRVNFTFS | -0.552 ± 0.71
SVNWMVSKLRSPNSQGLAIE | inactive
SVRFDDAMIDGITSAYMIKY | inactive
SVRLSIVAGWFCKIWYSFLL | inactive
SVRRHSSGCMNNAL | inactive
SVRVYGDCLCECWSCYTPRT | 0.502 ± 0.32
SVSGKRFDVMVLFLHSSKRL | inactive
SVSPEWYSSLLGSLCGAGFL | inactive
SVSRRGKDR | -0.237 ± 1.5
SVSVLHSYYLIYVCRDFFMK | 0.865 ± 0.12
SVSVRRNYKLIFAASM | inactive
SVTFDAWYCWMN | inactive
SVTLRATGSGNRRYDAIRNY | inactive

Substance | amyloid nucleation score
SVTPFPIIFN | inactive
SVVVVSWTTMLNDKLDPLDG | inactive
SVVYRKDSIKQRKEFSSHAF | inactive
SVWLASCYHLIWVELGRWDI | inactive
SVWRECNGKFVSFASHFADY | inactive
SVYCCIDKLLHSAKSRLFMM | inactive
SVYGKFILAAVAGLRFGGLK | inactive
SWCSPNGPQGLEVCSMRPFR | inactive
SWIKEFIQFIFIEGFRC | inactive
SWLANRYMGDYIRQWVWDKL | -0.932 ± 1.8
SWMTTRKGGDVALHASLFRM | inactive
SWSFMFSFSNSATNAACLPQ | 0.327 ± 0.27
SWTGCKYIQKYRCRRWCNNF | inactive
SWVTDWIL | inactive
SWVTVYTVMRVWVTFGNRRR | inactive
SWVVDITDRRSLFIDTPRFT | inactive
SYAGKGLTLQTHHDWRSGNG | inactive
SYCHRRLLSRVSLLVASSVK | inactive
SYCLTGTDSVINVIGAGPSQ | inactive
SYFSYPCCCCVVARFLNYVC | inactive
SYKGLCS | inactive
SYKMNVMT | inactive
SYMYLRGVLRYLVDMFALWI | inactive

Substance | amyloid nucleation score
SYNTYSVYGWGKGPRNYDWQ | inactive
SYRFYDDQSLCG | inactive
SYRPDSCRLNTMNDFSSCCS | inactive
SYRYFGGSDYRLCGGIWMLA | inactive
SYSLNNYMTKLVWIYVSWLL | inactive
SYVCIIYGNDGSLSRCKDDL | inactive
SYWRLHVIIFLWFFYLRYFN | inactive
TADLRRQTLGWGKFYYVSWF | inactive
TANLGRCYCKLSNFTSGWFL | inactive
TATHKLTNIPW | inactive
TAWLSSNFVSDRHCGYGSDC | inactive
TAYMNQIVNRELYP | inactive
TCACIWGVSVWCYRSQVFAQ | -0.455 ± 0.52
TCCCVYGTMIISEYFHGSNM | 2.73 ± 0.056
TCFFISSIFSFDKHVIVCCA | 0.536 ± 0.32
TCFVLQNKYVSRCGCWMCYS | 2.12 ± 0.051
TCIQYSKFLRA | inactive
TCKVMSSGYYVLYLDVRV | inactive
TCNIFLGAPHGAVGRCCRAR | 1.82 ± 0.11
TCRICTFGVWDFCRTDERRH | 2.24 ± 0.069
TCSMSTARSCSHKSNRVMHW | inactive
TCWRGELMELTDMLSVALLR | inactive
TDAIVFMEHSDVGRSSLDWN | inactive

Substance | amyloid nucleation score
TDAYKLITFIFPCKYLVTVC | inactive
TDDAGMYDNRFQSMSDENTF | inactive
TDFDNFSDTF | inactive
TDFIIRKSYQLLEFYFY | inactive
TDGRITS | 0.492 ± 0.35
TDLGSVGGW | -0.206 ± 1.5
TDRVNFSRLFSLIHDWLTPG | inactive
TDSLFGVIDHFYENRFW | -0.845 ± 1.4
TDVMVYHPFL | inactive
TEGLKIFDDET | inactive
TEHKVSFPHFVKYKPSLSSY | inactive
TFAMGLSARSISYCTNTRCP | 0.464 ± 0.4
TFCFLQVN | inactive
TFIHRHINNTSQLPGSFMKL | inactive
TFKARSLILSLKLYANMDH | inactive
TFLLLYGIMDSNVPTVRHAL | 0.846 ± 0.15
TFLVTRVPYSFF | inactive
TFQRSGT | inactive
TFSDRSFRQWVWQELSFCGS | inactive
TFSFHLCIQEPTSFDNSLHT | 0.164 ± 0.36
TFSQGSWRTESSLRDGGCLD | inactive
TFVDPGRV | -0.565 ± 1.1
TFWMPD | -0.55 ± 1.3

Substance | amyloid nucleation score
TGCGQFH | inactive
TGFILLTTTVSAINVYQVYR | 2.58 ± 0.056
TGIWSGYYKLFLSVLRGRRV | inactive
TGLLLIRIKGH | inactive
TGRLVIFTEWRLSAESSRSH | inactive
TGRVCFLCYTMSLIWSSPVT | 0.07 ± 0.7
TGVMRYRCLNLFVASICSVP | inactive
TGVSVECLLLWSWSVVWRCM | inactive
THKVWFKCVDAYNLAYVNSI | inactive
THLFRYKTASTDGCNESKAV | inactive
THSDYSEPRI | inactive
THVPYIT | inactive
TIGEKHCCWSLCIEETLVCD | inactive
TIGGNWGHWVVVIFV | 0.064 ± 0.96
TIHHRCCSKWKSAWRAYWSI | inactive
TIPLSFFDHI | inactive
TISATLVYQ | inactive
TISDFISEEIRDLQGPVVCI | inactive
TISISR | inactive
TITCCVYDN | 2.13 ± 0.053
TITKVNFWEQVRRLLQSGTQ | inactive
TIVNL | inactive
TIVTIVAFFNMERYGHFRGD | 0.903 ± 0.11

Substance | amyloid nucleation score
TIWAGMLASR | inactive
TIYSLFSLYLGIWQAPASVY | -0.455 ± 0.53
TKGFDVPT | inactive
TKKASSYQVDWFSCCWEYGA | 0.708 ± 0.26
TKKLKIPYFANFYTRFRHFK | inactive
TKMDETDLLMFAVLTGGLNG | inactive
TKRKCYPRLVRPGRLKGPSG | inactive
TKSPSGTHFLLVRFWSRCGR | inactive
TKYAHPPTQDDPLCGIRRSV | inactive
TLANQSHLISYYDSDHCRLL | -0.38 ± 0.78
TLASQFSFLVS | inactive
TLCNFKCVYTGSLKIFHRYM | 1.91 ± 0.094
TLDILLE | inactive
TLEFHPRAINYDHRMNMFSR | inactive
TLGLRADRYKLLYFFEGFLI | inactive
TLGPKEGWLVSNWMWSRVII | inactive
TLLHLLKLSGLVSKCSTMVL | inactive
TLLMMYKVGYLAMAIRMGGL | inactive
TLNIDGFIVFRTEVKGKLSY | inactive

Reference: the supplement of paper PMC12042874
